Patent publication US20200291444A1, “Macrocyclisation Tags” (Oxford University Innovation LTD, priority 2017, published 2020)

Legend:
[1] = molecular target: T1, GmPOPB_S577A (Galerina marginata), H2E7Q8; experiment: ITC
T1 chain: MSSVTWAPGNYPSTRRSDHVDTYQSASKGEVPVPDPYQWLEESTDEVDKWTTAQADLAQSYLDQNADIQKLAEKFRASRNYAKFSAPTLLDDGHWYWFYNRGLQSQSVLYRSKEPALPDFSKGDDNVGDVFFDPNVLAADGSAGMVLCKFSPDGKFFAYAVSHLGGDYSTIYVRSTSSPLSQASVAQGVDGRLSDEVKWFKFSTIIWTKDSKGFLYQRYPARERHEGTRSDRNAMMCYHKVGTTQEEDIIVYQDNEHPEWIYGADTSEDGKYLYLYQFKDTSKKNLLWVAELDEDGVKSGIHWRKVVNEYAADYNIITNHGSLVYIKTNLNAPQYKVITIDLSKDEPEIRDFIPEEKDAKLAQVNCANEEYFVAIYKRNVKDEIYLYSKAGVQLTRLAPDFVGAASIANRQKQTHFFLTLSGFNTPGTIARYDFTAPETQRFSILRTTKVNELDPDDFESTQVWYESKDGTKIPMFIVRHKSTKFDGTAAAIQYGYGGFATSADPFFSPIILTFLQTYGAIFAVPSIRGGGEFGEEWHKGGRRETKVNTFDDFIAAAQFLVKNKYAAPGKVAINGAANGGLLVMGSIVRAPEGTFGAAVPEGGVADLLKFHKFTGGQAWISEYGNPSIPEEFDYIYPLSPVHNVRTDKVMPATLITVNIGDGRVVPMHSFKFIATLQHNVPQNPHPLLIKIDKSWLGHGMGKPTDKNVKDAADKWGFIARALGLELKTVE

[2] = molecular target: T1, GmPOPB_S577A (Galerina marginata), …; experiment: ITC, peptide titrated into GmPOPB_S577A, 20 C
[3] = molecular target: T1, GmPOPB_S577A (Galerina marginata), …; experiment: ITC, 20 C, single-site model

Binder	Kd [2] [µM]	also measured
IWGIGCNPWTAEH (modifications not checked) [13mer truncated substrate]	2.4	fold difference in affinity against the 35mer [1]: 20 fold; fold reduction in binding against the 35mer [1]: 10 fold
IWGIGCNPWTA (modifications not checked) [11mer truncated substrate]	39	
IWGIGCNPWTAE (modifications not checked) [12mer truncated substrate]	21	
VDQTLASGNDIC (modifications not checked)	5	fold reduction of binding affinity against the 17mer recognition sequence [1]: 20 fold
IWGIGCNPWT (modifications not checked) [10mer truncated substrate]	83	
TLASGNDIC (modifications not checked)	121	
IWGIGCNPWTAEHV (modifications not checked) [14mer truncated substrate]	9.5	
WTAEHVDQTLASGNDIC (modifications not checked) [recognition sequence (17mer) …]		Kd [3]: 0.43 µM
